In PMC10692737:

Molecular target: Rabbit skeletal muscle actin (filaments with free barbed ends) (rabbit) (UniProt P68135)

Chain of C-terminal half of mouse CAP2, C-CAP2 (219–476)-6His (Q9CYT6 219-476): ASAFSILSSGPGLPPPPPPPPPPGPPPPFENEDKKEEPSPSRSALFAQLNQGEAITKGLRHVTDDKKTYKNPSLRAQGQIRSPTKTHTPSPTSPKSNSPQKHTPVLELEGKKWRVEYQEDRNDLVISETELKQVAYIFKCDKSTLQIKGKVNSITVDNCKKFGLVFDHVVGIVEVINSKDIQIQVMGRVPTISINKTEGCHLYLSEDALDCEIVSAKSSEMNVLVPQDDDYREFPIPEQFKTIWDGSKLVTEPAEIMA

C-terminal half of mouse CAP2, C-CAP2 (219–476)-6His (from UniProt Q9CYT6 219-476) (domain or fragment)
barbed end depolymerization rate in mf-TIRF, no actin monomers, 1 μM C-CAP2 (2.5- to 3-fold faster than control) (subunits s^−1): 10.8
